Residue numbers refer to the chain shown, from its start. In names and notes the source's numbering stands.
Tests used:
[1] = biological target: T1, recombinant human B7-H3 protein (bought antigen used for ELISA analysis and T cell activity analysis) (human, UniProt Q5ZPR3 29-461); assay: ELISA on plate-coated recombinant human B7-H3
T1 construct: range 1-461; also called extracellular domain (ECD) of B7-H3 protein; not shown: C-terminal histidine tag or Fc region of human IgG1 (Sino Biological 11188-H02H)
T1 sequence (looked up): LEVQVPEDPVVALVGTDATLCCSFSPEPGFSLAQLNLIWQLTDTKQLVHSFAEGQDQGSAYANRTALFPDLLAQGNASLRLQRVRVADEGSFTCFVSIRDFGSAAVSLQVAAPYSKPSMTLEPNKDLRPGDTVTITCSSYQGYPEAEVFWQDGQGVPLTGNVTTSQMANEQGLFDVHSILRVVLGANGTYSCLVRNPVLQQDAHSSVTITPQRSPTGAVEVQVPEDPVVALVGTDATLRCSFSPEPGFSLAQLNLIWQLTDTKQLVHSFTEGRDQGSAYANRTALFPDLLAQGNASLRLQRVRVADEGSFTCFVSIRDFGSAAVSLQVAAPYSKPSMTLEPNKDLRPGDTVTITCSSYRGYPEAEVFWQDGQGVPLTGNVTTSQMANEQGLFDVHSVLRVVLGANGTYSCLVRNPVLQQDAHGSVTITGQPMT
Protocol: Specifically, after diluting the recombinant human B7-H3 protein at a concentration of 1 µg/ml and putting it into a 96-well plate (Nunc-Immuno Plates, NUNC) in 100 µl per well, it was reacted at 4° C. for 16 hrs for coating. The recombinant human B7-H3 protein used in Example 1 was used here.
Then, after removing the protein and washing it with PBST, a PBS buffer comprising 1% BSA (bovine serum albumin) was put at 200 µl per well and it was reacted at 37° C. for 2 hrs to block non-specific binding. Then, after diluting anti-B7-H3 antibodies prepared in Example 2 at a concentration of 10 µg/ml on the 96-well plate, 100 µl was put in each well and it was reacted at 37° C. for 1 hr. Then after it was washed with PBST. In order to detect antibodies bound to human B7-H3, HRP-connected anti-human IgG F(ab')2 antibody (Goat anti-Human IgG F(ab')2 Cross-Adsorbed Secondary Antibody, HRP, Pierce, 31414) was diluted by 1:10,000 in PBS comprising 1% bovine serum albumin (BSA), and 100 µl was put per well and it was reacted at 37° C. for about 1 hr. After washing it with PBST again, TMB (Tetramethylbenzidine, Sigma, T0440) 100 µl was put to develop color. After reacting it at RT for 5-10 min, 50 µl of 1N H_2SO_4 was put to finish the reaction, and the absorbance at 450 nm and 650 nm was measured by using a micro plate reader (molecular device).

[2] = biological target: T2, human B7-H3 expressed on a cell surface (human cancer cell lines) (human, UniProt Q5ZPR3 29-534); assay: flow cytometry, Hela cells, antibody 10 ug/ml
T2 construct: whole, on cells; also called cell surface expression B7-H3 antigen
T2 sequence (looked up): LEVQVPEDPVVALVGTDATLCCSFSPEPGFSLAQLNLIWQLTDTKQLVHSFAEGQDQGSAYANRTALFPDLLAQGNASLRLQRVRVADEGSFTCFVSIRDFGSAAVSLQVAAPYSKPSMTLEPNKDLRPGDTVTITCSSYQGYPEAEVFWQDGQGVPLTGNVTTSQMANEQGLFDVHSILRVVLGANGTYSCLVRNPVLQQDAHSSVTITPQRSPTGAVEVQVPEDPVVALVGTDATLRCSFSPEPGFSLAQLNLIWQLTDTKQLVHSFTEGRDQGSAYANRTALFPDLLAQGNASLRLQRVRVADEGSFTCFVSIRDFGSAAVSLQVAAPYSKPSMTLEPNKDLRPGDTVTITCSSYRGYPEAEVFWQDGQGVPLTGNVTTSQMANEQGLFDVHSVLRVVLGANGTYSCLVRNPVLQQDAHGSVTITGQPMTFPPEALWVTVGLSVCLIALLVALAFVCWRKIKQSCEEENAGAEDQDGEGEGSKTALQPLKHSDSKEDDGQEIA
From the text: (§1) Using various kinds of cancer cells A2780 (human ovarian cancer, ECACC, 93112519), SKOV-3 (human ovarian adenocarcinoma, ATCC® HTB-77™) OVCAR-3 (human ovarian adenocarcinoma, ATCC® HTB-161™), HCT116 (colon cancer cell, ThermoFIshcer Sci), HT29 (olorectal adenocarcinoma, ATCC® HTB-38™), DLD-1 (colorectal adenocarcinoma cell lines, ATCC® CCL-221™), Calu-6 (Non-small-cell lung carcinoma, ATCC® HTB-56™), HCC1954 (TNM stage IIA, grade 3, ductal carcinoma, ATCC® CRL-2338™), HCC1187 (TNM stage IIA, ATCC® CLC-2322™), renal cancer cell line 786-0 (renal cell adenocarcinoma, ATCC® CRL-1932™), A498 (kidney carcinoma, ATCC® HTB-44™), Panc-1 (pancreas epithelioid carcinoma, TCC CRL-1469™), NCI-N87 (gastric carcinoma, TCC CRL-5822™), HeLa (cervix adenocarcinoma, ATCC® CCL-2™), JeKo-1 (Lymphoma, ATCC® CRL-3006™) and FACSCalibur (BD Biosciences) device, the degree of binding of anti-B7-H3 antibody to B7-H3 was measured as follows.
(§2) After dissociating each cell line and washing it with PBS buffer, the number of cells was counted and adjusted to 2×10^5 cells/200 µl PBS, and then was treated with 10 µg/ml of B7-H3 monoclonal antibodies prepared in Example 2. Reaction was allowed at 4° C. for 1 hr. […] After the reaction, cells were washed in PBS and analyzed using the FACSCalibur device. […]

[3] = biological target: T2, human B7-H3 expressed on a cell surface …; assay: flow cytometry, HT29 cells, antibody 10 ug/ml
From the text: as §1, §2

[4] = biological target: T2, human B7-H3 expressed on a cell surface …; assay: flow cytometry, MDA-MB-468 cells, antibody 10 ug/ml
[5] = biological target: T2, human B7-H3 expressed on a cell surface …; assay: flow cytometry, Calu-6 cells, antibody 10 ug/ml
From the text: as §1, §2

[6] = biological target: T2, human B7-H3 expressed on a cell surface …; assay: flow cytometry, HCC1954 cells, antibody 10 ug/ml
From the text: as §1, §2

[7] = biological target: T2, human B7-H3 expressed on a cell surface …; assay: flow cytometry, OVCAR-3 cells, antibody 10 ug/ml
From the text: as §1, §2

[8] = biological target: T2, human B7-H3 expressed on a cell surface …; assay: flow cytometry, A-498 cells, antibody 10 ug/ml
From the text: as §1, §2

[9] = biological target: T2, human B7-H3 expressed on a cell surface …; assay: flow cytometry, SKOV-3 cells, antibody 10 ug/ml
From the text: as §1, §2

[10] = biological target: T2, human B7-H3 expressed on a cell surface …; assay: flow cytometry, A2780 cells, antibody 10 ug/ml
From the text: as §1, §2

[11] = biological target: T2, human B7-H3 expressed on a cell surface …; assay: flow cytometry, 786-0 cells, antibody 10 ug/ml
From the text: as §1, §2

[12] = biological target: T2, human B7-H3 expressed on a cell surface …; assay: flow cytometry, HCC1187 cells, antibody 10 ug/ml
From the text: as §1, §2

[13] = biological target: T2, human B7-H3 expressed on a cell surface …; assay: flow cytometry, DLD-1 cells, antibody 10 ug/ml
From the text: as §1, §2

[14] = biological target: T2, human B7-H3 expressed on a cell surface …; assay: flow cytometry, Panc-1 cells, antibody 10 ug/ml
From the text: as §1, §2

[15] = biological target: T2, human B7-H3 expressed on a cell surface …; assay: flow cytometry, NCI-N87 cells, antibody 10 ug/ml
From the text: as §1, §2

[16] = biological target: T2, human B7-H3 expressed on a cell surface …; assay: flow cytometry, MCF-7 cells, antibody 10 ug/ml
[17] = biological target: T2, human B7-H3 expressed on a cell surface …; assay: flow cytometry, JeKo-1 cells, antibody 10 ug/ml
From the text: as §1, §2

[18] = biological target: T2, human B7-H3 expressed on a cell surface …; assay: flow cytometry, HCT116 cells, antibody 10 ug/ml
From the text: as §1, §2

[19] = biological target: T2, human B7-H3 expressed on a cell surface …; assay: flow cytometry, MDA-MB-231 cells, antibody 10 ug/ml
[20] = biological target: T3, recombinant human B7-H3 protein with a histidine tag linked to the C terminal (2318-B3/CF, R&D Systems) (human) (UniProt Q5ZPR3); assay: ELISA, soluble scFv on coated B7-H3-His 100 ng per well, anti-HA HRP
T3 sequence (looked up): T1 sequence (looked up)

B1: anti-B7-H3 antibody D8G M1 (full IgG form) (antibody, V domains shown)
VH: EVQLLESGGGLVQPGGSLRLSCAASGFTFSSYSMSWVRQAPGKGLEWVSGIYSDASNTYYADSVKGRFTISRDNSKNTLYLQMNSLRAEDTAVYYCAKMLHRFDYWGQGTLVTVSS
VL: QSVLTQPPSASGTPGQRVTISCSGSSSNIGSNSVTWYQQLPGTAPKLLIYADSQRPSGVPDRFSGSKSGTSASLAISGLRSEDEADYYCGTWDSSLNAYVFGGGTKLTVLG
EC50 (read off the curve) [1]: ~20 pM

B2: anti-B7-H3 antibody D8G M3 (full IgG form) (antibody, V domains shown)
VH: B1 VH
VL: B1 VL with S53V
EC50 (read off the curve) [1]: ~20 pM

B3: 84D (comparison group antibody, Enoblituzumab) (antibody, V domains shown)
VH: EVQLVESGGGLVQPGGSLRLSCAASGFTFSSFGMHWVRQAPGKGLEWVAYISSDSSAIYYADTVKGRFTISRDNAKNSLYLQMNSLRDEDTAVYYCGRGRENIYYGSRLDYWGQGTTVTVSS
VL: DIQLTQSPSFLSASVGDRVTITCKASQNVDTNVAWYQQKPGKAPKALIYSASYRYSGVPSRFSGSGSGTDFTLTISSLQPEDFATYYCQQYNNYPFTFGQGTKLEIK
MFI Ratio [2]: 23.5 ratio
MFI Ratio [3]: 8.9 ratio
MFI Ratio [4]: 8.6 ratio
MFI Ratio [5]: 23.2 ratio
MFI Ratio [6]: 14 ratio
MFI Ratio [7]: 13.7 ratio
MFI Ratio [8]: 24 ratio
MFI Ratio [9]: 11.9 ratio
MFI Ratio [10]: 13.1 ratio
MFI Ratio [11]: 20 ratio
MFI Ratio [12]: 14.9 ratio
MFI Ratio [13]: 10.7 ratio
MFI Ratio [14]: 9 ratio
MFI Ratio [15]: 12.8 ratio
MFI Ratio [16]: 78 ratio
MFI Ratio [17]: 2.9 ratio
MFI Ratio [18]: 5.9 ratio
MFI Ratio [19]: 5.4 ratio

B4: anti-B7-H3 scFv clone B5 (soluble monoclonal scFv) (scFv, part only; not given: linker, domain order and HA tag, V domains shown, not shown: another chain or arm of the molecule; small tags and cut ends)
VH: EVQLLESGGGLVQPGGSLRLSCAASGFTFSDYAMSWVRQAPGKGLEWVSSISSGSGSIYYADSVKGRFTISRDNSKNTLYLQMNSLRAEDTAVYYCAKNLIPLDYWGQGTLVTVSS
VL: QSVLTQPPSASGTPGQRVTISCSGSSSNIGSNAVSWYQQLPGTAPKLLIYYNSHRPSGVPDRFSGSKSGTSASLAISGLRSEDEADYYCGSWDASLNAYVFGGGTKLTVL
absorbance at 450 nm [20]: 1

B5: anti-B7-H3 scFv clone D8G M1 (soluble monoclonal scFv) (scFv, part only; not given: linker, domain order and HA tag, V domains shown, not shown: another chain or arm of the molecule; small tags and cut ends)
VH: B1 VH
VL: B4 VL with A33S, S35T, Y51A, N52D, H54Q, S91T, A94S
absorbance at 450 nm [20]: 1

B6: anti-B7-H3 scFv clone D8G (soluble monoclonal scFv) (scFv, part only; not given: linker, domain order and HA tag, V domains shown, not shown: another chain or arm of the molecule; small tags and cut ends)
VH: B1 VH with A55G
VL: B4 VL with A33S, S35T, Y51A, N52D, H54Q, S91T, A94S
absorbance at 450 nm [20]: 1

B7: anti-B7-H3 scFv clone D8G M3 (soluble monoclonal scFv) (scFv, part only; not given: linker, domain order and HA tag, V domains shown, not shown: another chain or arm of the molecule; small tags and cut ends)
VH: B1 VH
VL: B4 VL with A33S, S35T, Y51A, N52D, S53V, H54Q, S91T, A94S
absorbance at 450 nm [20]: 1

B8: anti-B7-H3 scFv clone C4I (soluble monoclonal scFv) (scFv, part only; not given: linker, domain order and HA tag, V domains shown, not shown: another chain or arm of the molecule; small tags and cut ends)
VH: B4 VH with D31G, A33Y, S50L, S53P, G54S, N99G, I101T, P102K, L103F
VL: B4 VL with S23T, A33D, Y51A, A94D, N97S, A98G
absorbance at 450 nm [20]: 1

B9: anti-B7-H3 scFv clone F6V (soluble monoclonal scFv) (scFv, part only; not given: linker, domain order and HA tag, V domains shown, not shown: another chain or arm of the molecule; small tags and cut ends)
VH: EVQLLESGGGLVQPGGSLRLSCAASGFTFSDYAMSWVRQAPGKGLEWVSGISPGGSNTYYADSVKGRFTISRDNSKNTLYLQMNSLRAEDTAVYYCAKDAWIARLLLFDYWGQGTLVTVSS
VL: B4 VL with S35T, S53N, H54K, S91T, A94D, N97S, A98G
absorbance at 450 nm [20]: 1
